These are literature values, as cited in publication PMC12368481, “Discovery of a Phenylalanine‐Derived Natural Compound as a Potential Dual Inhibitor of MDM2 and MDMX” (Chemmedchem, 2025).

As a reminder, the Kd is the constant that tells how readily two partners part at equilibrium.

The target of series [1] is p53 peptide (Homo sapiens) (UniProt P04637).
The target is the same in series [2]. The source holds these as a separate data set.

Where two headings read alike, the source gives them in different places.

p53 peptide (Homo sapiens), sequence (P04637 whole entry): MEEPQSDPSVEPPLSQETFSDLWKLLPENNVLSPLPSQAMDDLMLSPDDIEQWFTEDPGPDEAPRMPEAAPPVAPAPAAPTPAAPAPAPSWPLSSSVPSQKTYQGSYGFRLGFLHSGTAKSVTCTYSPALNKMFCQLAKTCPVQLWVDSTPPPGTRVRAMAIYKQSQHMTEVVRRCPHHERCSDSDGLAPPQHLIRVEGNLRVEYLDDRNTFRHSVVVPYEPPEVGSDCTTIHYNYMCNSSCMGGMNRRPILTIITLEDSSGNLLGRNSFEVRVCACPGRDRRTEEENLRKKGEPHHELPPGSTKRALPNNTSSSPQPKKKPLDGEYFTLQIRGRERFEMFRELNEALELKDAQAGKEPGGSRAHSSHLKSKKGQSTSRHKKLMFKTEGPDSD
MDM2, sequence (Q00987 whole entry): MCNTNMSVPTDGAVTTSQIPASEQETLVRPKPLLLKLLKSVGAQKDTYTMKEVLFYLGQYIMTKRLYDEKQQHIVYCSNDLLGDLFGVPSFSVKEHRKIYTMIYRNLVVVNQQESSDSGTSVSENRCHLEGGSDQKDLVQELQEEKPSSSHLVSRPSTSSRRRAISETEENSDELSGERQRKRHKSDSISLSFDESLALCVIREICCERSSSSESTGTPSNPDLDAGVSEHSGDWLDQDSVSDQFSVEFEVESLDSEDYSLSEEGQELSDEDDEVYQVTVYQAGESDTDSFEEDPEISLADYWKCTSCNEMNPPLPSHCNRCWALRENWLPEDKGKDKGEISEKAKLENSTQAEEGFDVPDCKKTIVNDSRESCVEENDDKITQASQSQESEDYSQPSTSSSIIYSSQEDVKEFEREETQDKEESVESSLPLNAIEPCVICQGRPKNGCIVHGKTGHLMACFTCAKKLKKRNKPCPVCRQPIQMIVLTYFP
MDMX, sequence (O15151 whole entry): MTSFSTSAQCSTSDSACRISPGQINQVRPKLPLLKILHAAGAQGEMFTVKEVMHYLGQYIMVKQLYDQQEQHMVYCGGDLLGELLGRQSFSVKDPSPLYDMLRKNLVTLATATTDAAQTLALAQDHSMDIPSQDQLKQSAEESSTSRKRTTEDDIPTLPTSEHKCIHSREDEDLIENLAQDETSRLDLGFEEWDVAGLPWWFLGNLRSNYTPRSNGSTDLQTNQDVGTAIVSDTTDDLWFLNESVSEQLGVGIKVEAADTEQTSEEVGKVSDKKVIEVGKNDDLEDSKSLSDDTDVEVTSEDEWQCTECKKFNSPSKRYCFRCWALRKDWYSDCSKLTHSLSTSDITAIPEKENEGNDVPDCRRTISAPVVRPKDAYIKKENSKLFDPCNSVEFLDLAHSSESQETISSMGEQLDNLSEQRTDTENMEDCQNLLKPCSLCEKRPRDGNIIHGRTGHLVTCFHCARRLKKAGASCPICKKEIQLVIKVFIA

As to MDM2 (from UniProt Q00987), in series [1], the Kd is 1110 nM.
Take MDMX (from UniProt O15151): the Kd in series [2] was 340 nM.
